Molecular target: F-actin (filamentous actin), unlabeled, from chicken skeletal muscle (chicken, UniProt P68139 1-377)
Assay: cryo-EM structure; 0.6 uM F-actin in KMEI applied to the grid, then 10 uM metavinculin ABD or 20 uM α-catenin ABD in KMEI, 25 °C; helical reconstruction (IHRSR, RELION 3.0)
Conditions: both partners purified

Row | stoichiometry N | Binder
1 | 1 | H. sapiens α-catenin ABD (αE-catenin 664-906), not Halo-tagged (domain or fragment, residues 699-871 modelled in the map; Form used for cryo-EM; source: E. coli Rosetta2(DE3), purified (Ni-NTA, TEV cleavage, HiTrapQ, Superdex 200; no glycerol); not shown: His6, N-terminal, cleaved; Strep-tag, N-terminal, cleaved) IAGQSARAIMAQLPQEQKAKIAEQVASFQEEKSKLDAEVSKWDDSGNDIIVLAKQMCMIMMEMTDFTRGKGPLKNTSDVISAAKKIAEAGSRMDKLGRTIADHCPDSACKQDLLAYLQRIALYCHQLNICSKVKAEVQNLGGELVVSGVDSAMSLIQAAKNLMNAVVQTVKASYVASTKYQKSQGMASLNLPAVSWKMKAPEKKPLVKREKQDETQTKIKRASQKKHVNPVQALSEFKAMDSI
2 | 1 | H. sapiens metavinculin ABD (879-1134), not Halo-tagged (domain or fragment, residues 981-1131 modelled in the map; Form used for cryo-EM; source: E. coli Rosetta2(DE3), purified (Ni-NTA, TEV cleavage, HiTrapQ, Superdex 200; no glycerol); not shown: His6, N-terminal, cleaved; Strep-tag, N-terminal, cleaved) EEKDEEFPEQKAGEVINQPMMMAARQLHDEARKWSSKPGIPAAEVGIGVVAEADAADAAGFPVPPDMEDDYEPELLLMPSNQPVNQPILAAAQSLHREATKWSSKGNDIIAAAKRMALLMAEMSRLVRGGSGTKRALIQCAKDIAKASDEVTRLAKEVAKQCTDKRIRTNLLQVCERIPTISTQLKILSTVKATMLGRTNISDEESEQATEMLVHNAQNLMQSVKETVREAEAASIKIRTDAGFTLRWVRKTPWYQ
